{"source": "paper PMC4775355", "about": "(Cancer research, 2016)", "molecular_target": "the molecule itself", "test": "cross-linking"}
{"protein": "Flag-PKM2 Y148F mutant (PKM2^Y148F) (enzyme) not shown", "values": [{"measurement": "stoichiometry N", "value": 4}]}
